According to paper PMC3037847 (Nature, 2010):
Values belong to the binder of their own block, whether it stands above or below them. No end group written: not given here.

B1: Apc3/Cdc27, TPR subunit in the S. cerevisiae APC/C (natural protein)
chain: MAVNPELAPFTLSRGIPSFDDQALSTIIQLQDCIQQAIQQLNYSTAEFLAELLYAECSILDKSSVYWSDAVYLYALSLFLNKSYHTAFQISKEFKEYHLGIAYIFGRCALQLSQGVNEAILTLLSIINVFSSNSSNTRINMVLNSNLVHIPDLATLNCLLGNLYMKLDHSKEGAFYHSEALAINPYLWESYEAICKMRATVDLKRVFFDIAGKKSNSHNNNAASSFPSTSLSHFEPRSQPSLYSKTNKNGNNNINNNVNTLFQSSNSPPSTSASSFSSIQHFSRSQQQQANTSIRTCQNKNTQTPKNPAINSKTSSALPNNISMNLVSPSSKQPTISSLAKVYNRNKLLTTPPSKLLNNDRNHQNNNNNNNNNNNNNNNNNNNNNNNNIINKTTFKTPRNLYSSTGRLTTSKKNPRSLIISNSILTSDYSITLPEIMYNFALILRSSSQYNSFKAIRLFESQIPSHIKDTMPWCLVQLGKLHFEIINYDMSLKYFNRLKDLQPARVKDMEIFSTLLWHLHDKVKSSNLANGLMDTMPNKPETWCCIGNLLSLQKDHDAAIKAFEKATQLDPNFAYAYTLQGHEHSSNDSSDSAKTCYRKALACDPQHYNAYYGLGTSAMKLGQYEEALLYFEKARSINPVNVVLICCCGGSLEKLGYKEKALQYYELACHLQPTSSLSKYKMGQLLYSMTRYNVALQTFEELVKLVPDDATAHYLLGQTYRIVGRKKDAIKELTVAMNLDPKGNQVIIDELQKCHMQE
B2: S. cerevisiae His6-Cdh1 (natural protein)
chain: MSTNLNPFMNNTPSSSPLKGSESKRVSKRPISSSSSASLLSSPSRRSRPSTVYGDRYIPSRTDIDFNSIVSISSMASVPALNPSSTEDQVEYQKERQAHETYNTLLKNELFGEMLSKDTVGSESSIDRIKNTRPSTRGNVHAENTTRHGYELERVSTPPPEAAGLEEFSPHSTPVTPRRLFTSQQDEITRPSSNSVRGASLLTYQQRKGRRLSAASLLQSQFFDSMSPVRPDSKQLLLSPGKQFRQIAKVPYRVLDAPSLADDFYYSLIDWSSTDVLAVALGKSIFLTDNNTGDVVHLCDTENEYTSLSWIGAGSHLAVGQANGLVEIYDVMKRKCIRTLSGHIDRVACLSWNNHVLTSGSRDHRILHRDVRMPDPFFETIESHTQEVCGLKWNVADNKLASGGNDNVVHVYEGTSKSPILTFDEHKAAVKAMAWSPHKRGVLATGGGTADRRLKIWNVNTSIKMSDIDSGSQICNMVWSKNTNELVTSHGYSKYNLTLWDCNSMDPIAILKGHSFRVLHLTLSNDGTTVVSGAGDETLRYWKLFDKPKAKVQPNSLIFDAFNQIR

What was measured:
cryo-EM structure = target: the molecule itself; experiment: cryo-EM structure
[1] = target: T1, Apc2, cullin subunit in the S. cerevisiae APC/C (S. cerevisiae, UniProt Q12440 1-853); experiment: cryo-EM structure
T1 sequence: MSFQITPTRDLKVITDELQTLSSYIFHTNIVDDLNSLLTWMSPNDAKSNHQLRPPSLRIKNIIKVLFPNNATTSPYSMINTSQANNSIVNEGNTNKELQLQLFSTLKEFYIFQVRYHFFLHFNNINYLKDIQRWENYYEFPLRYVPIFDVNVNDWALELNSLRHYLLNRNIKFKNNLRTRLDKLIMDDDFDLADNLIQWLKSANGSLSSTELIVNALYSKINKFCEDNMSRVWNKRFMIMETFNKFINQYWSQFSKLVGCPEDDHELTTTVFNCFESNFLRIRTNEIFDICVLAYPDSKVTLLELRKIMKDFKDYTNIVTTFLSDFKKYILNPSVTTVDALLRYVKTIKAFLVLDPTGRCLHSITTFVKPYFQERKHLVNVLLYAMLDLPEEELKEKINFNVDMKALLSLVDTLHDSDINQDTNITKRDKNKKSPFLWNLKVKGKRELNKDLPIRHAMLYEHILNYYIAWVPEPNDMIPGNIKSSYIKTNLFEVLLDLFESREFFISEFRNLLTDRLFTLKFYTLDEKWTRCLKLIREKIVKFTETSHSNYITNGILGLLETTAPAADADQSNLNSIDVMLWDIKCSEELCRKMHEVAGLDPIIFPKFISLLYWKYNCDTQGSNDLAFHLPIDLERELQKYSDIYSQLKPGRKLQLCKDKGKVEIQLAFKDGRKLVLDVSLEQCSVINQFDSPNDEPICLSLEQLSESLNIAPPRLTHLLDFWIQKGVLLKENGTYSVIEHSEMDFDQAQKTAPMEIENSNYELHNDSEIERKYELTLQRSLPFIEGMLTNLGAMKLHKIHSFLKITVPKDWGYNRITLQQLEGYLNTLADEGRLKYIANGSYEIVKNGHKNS

[2] = target: B1; experiment: cryo-EM structure
[3] = target: APC/C in complex with Cdh1 (APC/C^Cdh1), budding yeast (S. cerevisiae) (UniProt P53886)
S. cerevisiae His6-Cdh1 = target: B2; experiment: cryo-EM structure

Binder: B1
binding result (cryo-EM structure): binds

Binder: B2
binding result [1]: binds | binding result [2]: binds

inhibition of APC/C^Cdh1 ubiquitylation of Clb2 by the peptide [3]: 0.1 mM | binding result (S. cerevisiae His6-Cdh1): binds
B3: 18-residue D-box peptide modelled on cyclin B (S. pombe Cdc13) (peptide)
peptide: NVPKKRHALDDVSNFHNK
modifications: not fully specified
